Assays:
[1] = target: CwlDΔ25-His6 (C. difficile); experiment: pull-down
[2] = target: GerSΔ22-His6 (C. difficile); experiment: SEC
[3] = target: CwlDΔ25-His6 (C. difficile); experiment: SEC
[4] = target: CwlD_(E199A)-FLAG (C. difficile); experiment: co-IP
[5] = target: FLAG-tagged CwlD_(H49A) (C. difficile); experiment: co-IP
[6] = target: FLAG-tagged CwlD_(R169D) (C. difficile); experiment: co-IP
[7] = target: GerSΔ22 (untagged) (C. difficile); experiment: crystal structure
[8] = target: CwlD R169D-His6 (C. difficile); experiment: pull-down
[9] = target: CwlD R169Q-His6 (C. difficile); experiment: pull-down
[10] = target: CwlD_(E199A)-His6 (C. difficile); experiment: SEC
[11] = target: CwlD_(E65A)-His6 (C. difficile); experiment: SEC
[12] = target: CwlD_(H49A)-His6 (C. difficile); experiment: SEC

## GerS D106A (untagged) (domain or fragment)
[1]
  reduction of GerS co-purification against the wild-type complex: 90%

## GerSΔ22-His6 (domain or fragment)
[2]
  stoichiometry N: 2

## GerS D106R (untagged) (domain or fragment)
[1]
  reduction of GerS co-purification against the wild-type complex: 90%

## CwlDΔ25-His6 (domain or fragment)
[3]
  stoichiometry N: 2

## cleaved form of GerS (untagged, in sporulating C. difficile) (natural protein)
[4]
  decrease of the interaction against the wild-type CwlD:GerS complex: 40%
[5]
  fold reduction of GerS pulled down against wild-type FLAG-tagged CwlD: 5 fold
[6]
  fold reduction of GerS pulled down against wild-type FLAG-tagged CwlD: 5 fold

## GerSΔ22 (untagged) (domain or fragment)
[7]
  stoichiometry N: 2
[8]
  reduction of GerS co-purification against the wild-type complex: 90%
[9]
  reduction of GerS co-purification against the wild-type complex: 90%
[10]
  stoichiometry N: 1
[11]
  stoichiometry N: 1
[12]
  stoichiometry N: 1
[3]
  stoichiometry N: 1
